Measured values as given in US20210070804A1 (published 2021).

Assays:
[1] = target: clone nr 1.8 (SEQ ID NO: 4), monoclonal phage; test: phage ELISA, dilution series 1/10 to 1/1000
[2] = target: clone nr 1.9 (SEQ ID NO: 5), monoclonal phage; test: phage ELISA, dilution series 1/10 to 1/1000
[3] = target: clone nr 4.10 (SEQ ID NO: 6), monoclonal phage; test: phage ELISA, dilution series 1/10 to 1/1000
[4] = target: clone nr 1.2 (SEQ ID NO: 2), monoclonal phage; test: cross reactivity phage ELISA on coated toxin
[5] = target: clone nr 1.4 (SEQ ID NO: 3), monoclonal phage; test: cross reactivity phage ELISA on coated toxin
[6] = target: clone nr 1.1 (SEQ ID NO: 1), monoclonal phage; test: monoclonal phage ELISA on coated myotoxin II
[7] = target: TAMRA-labeled JB006; test: fluorescence polarization with TAMRA-labeled JB006
[8] = target: clone nr 1.1 (SEQ ID NO: 1), monoclonal phage; test: cross reactivity phage ELISA on coated toxin
[9] = target: clone nr 1.8 (SEQ ID NO: 4), monoclonal phage; test: cross reactivity phage ELISA on coated toxin
[10] = target: clone nr 1.9 (SEQ ID NO: 5), monoclonal phage; test: cross reactivity phage ELISA on coated toxin
[11] = target: clone nr 4.10 (SEQ ID NO: 6), monoclonal phage; test: cross reactivity phage ELISA on coated toxin

Measured: binding result

B1: Myotoxin II from venom of Bothrops asper (other)
chain: SLFELGKMILQETGKNPAKSYGAYGCNCGVLGRGKPKDATDRCCYVHKCCYKKLTGCNPKKDRYSYSWKDKTIVCGENNSCLKELCECDKAVAICLRENLNTYNKKYRYYLKPLCKKADAC
not listed: [8] | [9] | [10] | [11]
binds: all other assays above

B2: α-cobra toxin (a-cbtx) from Naja kaouthia (other)
chain: IRCFITPDITSKDCPNGHVCYTKTWCDAFCSIRGKRVDLGCAATCPTVKTGVDIQCCSTDNCNPFPTRKRP
binds: [8] | [4] | [5] | [9] | [10] | [11]
